Data taken from the supplement of paper PMC10567573.

B1: FUT8 (parent)
chain: YAHQPRTADEIPMEPGDIIGVAGN

Variants of: B1
Test: protein stability index of a GFP-peptide fusion (GPS, HEK-293T) (PSI 1-6); higher = more stable
Settings: c terminus: a fixed tail appended
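Also: lentivirally expressed fusions sorted by FACS into six bins by GFP to DsRed ratio, PSI derived from sequencing read proportions per bin multiplied by bin number.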

Protein stability index of substitutions, site by site:
P15: F 3.52 | Y 3.31 | G 4.16 | V 3.58 | R 4.23 | N 4.08 | E 4.57 | I 3.5 | H 3.86 | M 3.68 | A 4.38 | W 2.2 | C 3.58 | T 4.25 | D 4.32 | Q 4.25 | L 3.2 | S 3.92 | K 4.16
G20: E 4.48 | S 3.86 | M 4.11 | C 3.73 | I 3.26 | L 2.96 | N 4.29 | D 4.59 | Y 3.37 | Q 4.06 | A 4.26 | T 4.37 | H 4.17 | V 3.5 | P 4.47 | K 4.34 | R 3.56 | W 2.08 | F 3.55
D17: K 3.25 | F 2.03 | H 3.29 | A 3.23 | Q 4.14 | R 3.45 | I 2.57 | E 4.24 | S 3.78 | N 3.48 | C 2.79 | L 2.3 | Y 2.68 | T 3.38 | G 3.38 | V 2.87 | M 3.06 | W 1.41 | P 3.14
G16: W 2.12 | L 3.73 | R 3.66 | V 3.92 | K 3.75 | N 4.16 | I 3.44 | C 3.5 | H 4.08 | E 4.26 | Q 4.17 | F 2.93 | T 3.86 | P 4.1 | Y 3.05 | D 4.61 | S 3.87 | M 3.54 | A 4.3
G23: A 3.96
E14: M 3.25 | R 3.48 | H 3.5 | L 2.88 | T 3.9 | N 3.25 | S 3.29 | K 3.29 | V 3.58 | Y 2.27 | I 3.23 | P 3.12 | W 2.1 | Q 3.47
A22: T 3.87 | D 4.19 | E 3.92 | C 3.14 | L 3.63 | G 4.01 | R 4 | I 3.12 | P 4.06 | K 4.4 | Q 4.31 | F 2.85 | Y 3.27 | V 3.26 | S 3.92 | M 3.96 | H 3.97 | W 2.41 | N 4.38
I19: Y 4.06 | L 3.65 | M 4.54 | D 5.07 | W 1.93 | K 4.42 | T 4.16 | N 4.72 | P 4.61 | A 4.67 | F 3.78 | R 4.4 | Q 4.25 | H 4.02 | E 5.21 | G 4.34 | S 4.55 | C 4.22 | V 4.17
V21: R 3.47 | Y 3.82 | M 3.68 | C 4 | D 4.62 | P 4.13 | H 4.15 | T 4.69 | W 3.03 | G 4.29 | I 3.93 | L 4.03 | K 3.99 | Q 4.22 | S 4.05 | F 3.8 | A 4.33 | E 4.62 | N 4.28
I18: Y 3.63 | K 4.56 | G 3.84 | E 4.19 | D 4.95 | N 4.03 | R 4.45 | H 3.71 | F 3.55 | M 4.21 | W 3.11 | C 3.01 | L 4.05 | T 4.2 | S 3.79 | P 4.7 | A 3.83 | Q 4.07 | V 4.47
